This is an account of results in PMC12729873, “Linoleic Hydroperoxides Are Potent Hyperoxidative Agents of Sensitive and Robust Typical 2-Cys Peroxiredoxins” (Antioxidants, 2025).

Test in all cases: purified protein
For data set [1], the system named is CC(C)(OO)c1ccccc1. It counts as biochemical, Pseudomonas aeruginosa. To be noted: E. coli Trx/TrxR, NADPH 150 µM, HEPES pH 7.4, 37 °C, DTPA 100 µM, azide 1 mM, fit to low-substrate phase only.
For data set [2], the system named is CC(C)(OO)c1ccccc1. The following applies: S. cerevisiae Trx1/TrxR1, NADPH 150 µM, HEPES pH 7.4, 37 °C, DTPA 100 µM, azide 1 mM, fit to low-substrate phase only.
Substrate in the data set “purified protein”: CC(C)(OO)c1ccccc1
To be noted: E. coli Trx/TrxR, NADPH 150 µM, HEPES pH 7.4, 37 °C, DTPA 100 µM, azide 1 mM, fit to low-substrate phase only.

A word on the Vmax: it is the top rate of the reaction or transport when substrate is in excess. For orientation: kcat means the maximal rate divided by the concentration of active sites. Broadly, the kcat/Km is the turnover number divided by the Michaelis constant.

Turning to “PaAhpC (Pseudomonas aeruginosa UCBPP-PA14)”, in the data set on CC(C)(OO)c1ccccc1 [1], the Km is 82 (±14) µM, the Vmax was determined as 34.2 µM/min, the kcat is 0.18 ± 0.01 s⁻¹ and the kcat/Km was 2000 ± 200 M⁻¹ s⁻¹.
In the case of HsPrx2 (Homo sapiens), in the data set on CC(C)(OO)c1ccccc1 [2], the Km is 57 (±17) µM, the Vmax is 101 µM/min, the catalytic constant (kcat) was determined as 0.56 ± 0.09 s⁻¹ and the kcat/Km was found to be 9800 ± 1300 M⁻¹ s⁻¹.

B1: SeAhpC (Staphylococcus epidermidis RP62A) (protein)
chain: MSLINKEILPFTAQAYDPKKDEFKEVTQEDFKGSWNVVCFYPADFSFVCPTELEDLQNQYAKLQELGVNVYSVSTDTHFVHKAWHDHSDAISKLEYSMIGDPSQTITRNFDVLDEETGLAQRGTFIIDPDGVVQAAEINADGIGRDASTLVNKIKAAQYVRQHPGEVCPAKWEEGSESLQPGLDLVGKI
For B1, in the data set “purified protein”, the Km is 76 (±10) µM, the Vmax came to 35.4 µM/min, the kcat was 0.19 ± 0.01 s⁻¹ and the kcat/Km is 2500 ± 100 M⁻¹ s⁻¹.
